Laboratory results published in article PMC11434109, “VIK‐Mediated Auxin Signaling Regulates Lateral Root Development in Arabidopsis” (Advanced Science, 2024).

Target: T1, His-VIK (Arabidopsis, UniProt Q9XI87 1-438)
T1 construct: VIK, Arabidopsis, AT1G14000, N-terminal 6 x histidine tag and a full-length VIK protein; also called recombinant His-VIK; source: E. coli BL21 (DE3), purified (Ni NTA beads); not shown: His6, N-terminal, kept
T1 sequence (looked up): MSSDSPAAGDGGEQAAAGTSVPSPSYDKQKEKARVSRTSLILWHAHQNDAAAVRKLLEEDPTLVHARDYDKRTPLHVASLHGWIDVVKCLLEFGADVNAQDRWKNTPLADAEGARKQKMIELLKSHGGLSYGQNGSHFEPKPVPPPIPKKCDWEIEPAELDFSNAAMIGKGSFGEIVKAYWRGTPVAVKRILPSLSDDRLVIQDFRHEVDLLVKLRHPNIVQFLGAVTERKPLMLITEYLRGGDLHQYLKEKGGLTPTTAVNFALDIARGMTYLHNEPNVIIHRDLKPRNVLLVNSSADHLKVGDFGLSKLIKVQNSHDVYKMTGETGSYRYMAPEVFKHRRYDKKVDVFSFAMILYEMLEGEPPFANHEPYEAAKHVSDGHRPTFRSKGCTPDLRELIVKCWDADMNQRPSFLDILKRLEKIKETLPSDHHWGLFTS
Assay: pull-down; GST-LBD18 immobilised on Glutathione Beads, incubated with His-VIK or His-MBP at 4 °C for 4 h; washed five times with 1 x PBS; blot with anti-His and anti-GST
Conditions: both partners purified

B1: GST-LBD18 (natural protein, Arabidopsis, UniProt O22131 1-262, looked up)
chain: MSGGGNTITAVGGGGGGCGGGGSSGGGGSSGGGGGGPCGACKFLRRKCVPGCIFAPYFDSEQGSAYFAAVHKVFGASNVSKLLLHIPVHRRSDAVVTICYEAQARIRDPIYGCVAHIFALQQQVVNLQAEVSYLQAHLASLELPQPQTRPQPMPQPQPLFFTPPPPLAITDLPASVSPLPSTYDLASIFDQTTSSSAWATQQRRFIDPRHQYGVSSSSSSVAVGLGGENSHDLQALAHELLHRQGSPPPAATDHSPSRTMSR
notes: the words full length are not used for this construct; also called recombinant GST-LBD18; source: E. coli BL21 (DE3), purified (Glutathione Beads); not shown: GST, N-terminal, kept
binding result: binds
